Changes are numbered by the printed parent chain. Names and notes keep the numbering of the source.
Key:
[1] = molecular target: T1, human CD47 on cells (SHP-77 tumor cells, human red blood cells, CCRF-CEM cells, human CD47 CHO-K1 stable cell … (human, UniProt Q08722 19-323)); experiment: cell-based or functional assay
[2] = molecular target: T1, human CD47 on cells (SHP-77 tumor …); experiment: flow cytometry on SHP-77 cells
[3] = molecular target: T2, wild type human CD47 (Acro Biosystems, cat. no. CD7-H5227) (human, UniProt Q08722 19-139); experiment: SPR, IgG captured, CD47 in flow; exp 4
T2 construct: Bought protein used as SPR analyte; also called Human CD47 wt; wild-type CD47

[4] = molecular target: T3, Human CD47-C33G (human, UniProt Q08722 19-135); experiment: SPR, IgG captured, CD47 in flow; exp 4
T3 construct: also called CD47 mutein with C33G mutation

[5] = molecular target: T1, human CD47 on cells (SHP-77 tumor …); experiment: flow cytometry on human CD47 CHO-K1 cells
[6] = molecular target: T4, cynomolgus CD47 on CHO-K1 stable cell line (cynomolgus, UniProt A0A5F8AK49 19-323 (rhesus entry)); experiment: flow cytometry on cynomolgus CD47 CHO-K1 cells
T4 construct: whole, on cells; also called cynomolgus CD47/CHO-K1

[7] = molecular target: T1, human CD47 on cells (SHP-77 tumor …); experiment: flow cytometry on human RBCs; plateau not reached, not accurate;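 for Fitted Maximal MFI: antibody binding measured by flow cytometry as geometric mean fluorescence intensity over a range of antibody concentrations, with EC50 and maximum taken from a sigmoidal dose-response fit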
[8] = molecular target: T2, wild type human CD47 (Acro Biosystems, …); experiment: SPR, IgG captured, CD47 in flow; exp 1
[9] = molecular target: T3, Human CD47-C33G; experiment: SPR, IgG captured, CD47 in flow; exp 1
[10] = molecular target: T2, wild type human CD47 (Acro Biosystems, …); experiment: SPR, IgG captured, CD47 in flow; exp 3
[11] = molecular target: T3, Human CD47-C33G; experiment: SPR, IgG captured, CD47 in flow; exp 3
[12] = molecular target: T2, wild type human CD47 (Acro Biosystems, …); experiment: SPR, IgG captured, CD47 in flow; exp 1; remark: listed apart in the source
[13] = molecular target: T3, Human CD47-C33G; experiment: SPR, IgG captured, CD47 in flow; exp 1; remark: listed apart in the source
[14] = molecular target: T2, wild type human CD47 (Acro Biosystems, …); experiment: SPR, IgG captured, CD47 in flow; exp 2;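 note: rates derived from association and dissociation curves, KD estimated from them, C33G mutein used to avoid CD47 IgV homodimers for true monovalent affinity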
[15] = molecular target: T3, Human CD47-C33G; experiment: SPR, IgG captured, CD47 in flow; exp 2;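 note: rates derived from association and dissociation curves, KD estimated from them, C33G mutein used to avoid CD47 IgV homodimers for true monovalent affinity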
[16] = molecular target: T2, wild type human CD47 (Acro Biosystems, …); experiment: SPR, IgG captured, CD47 in flow; exp 3; remark: listed apart in the source
[17] = molecular target: T3, Human CD47-C33G; experiment: SPR, IgG captured, CD47 in flow; exp 3; remark: listed apart in the source
[18] = molecular target: T2, wild type human CD47 (Acro Biosystems, …); experiment: SPR, IgG captured, CD47 in flow; exp 4; remark: listed apart in the source
[19] = molecular target: T3, Human CD47-C33G; experiment: SPR, IgG captured, CD47 in flow; exp 4; remark: listed apart in the source
[20] = molecular target: T1, human CD47 on cells (SHP-77 tumor …); experiment: flow cytometry on human RBCs;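 note: antibody binding measured by flow cytometry as geometric mean fluorescence intensity over a range of antibody concentrations, with EC50 and maximum taken from a sigmoidal dose-response fit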
[21] = molecular target: T1, human CD47 on cells (SHP-77 tumor …); experiment: flow cytometry on human RBCs; poor fitting, not accurate;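 for Fitted Maximal MFI: antibody binding measured by flow cytometry as geometric mean fluorescence intensity over a range of antibody concentrations, with EC50 and maximum taken from a sigmoidal dose-response fit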
[22] = molecular target: T3, Human CD47-C33G; experiment: SPR, IgG captured, CD47 in flow; exp 1; remark: listed apart in the source

B1: 108VH5.M22 / 108VL1.M5 (antibody, human IgG4 S228P, kappa, V domains shown)
VH: EVQLVQSGAEVKKPGASVKVSCKASGYTFTHHWMHWVRQAPGQGLEWMGMIDASDIETRYAQKFQGRVTMTRDTSTSTVYMELSSLRSEDTAVYYCARLGRYYFDYWGQGTLVTVSS
VL: EIVLTQSPATLSLSPGERATLSCRASQSVSSYLAWYQQKPGQAPRLLIYGASNRATGIPARFSGSGSGTDFTLTISSLEPEDFAVYYCGESYGHLYTFGGGTKVEIKR
notes: Full-length IgG4 (S228P), kappa; also called VH5.M22 VL1.M5
With B1 the “CCRF-CEM phagocytosis EC50” value [1] was 0.37 nM, the “CCRF-CEM phagocytosis, Phagocytosis (%)” value [1] was 59.4% and the EC50 [2] was 8.4 nM. The “Fitted Maximal MFI” value [2] was 41600 MFI, the Kd [3] was 6.1 nM and the koff [3] was 0.0029 s⁻¹. The kon [3] was 480000 M⁻¹ s⁻¹, the Kd [4] was 35 nM and the koff [4] was 0.0068 s⁻¹. The kon [4] was 200000 M⁻¹ s⁻¹, the EC50 [5] was 3.6 nM and the EC50 [6] was 3.6 nM. The EC50 [7] was 10.1 nM.

B2: 108VH4.M4-VL1.M1 (antibody, V domains shown)
VH: EVQLVQSGAEVKKPGSSVKVSCKASGYSFTHHWIHWVRQAPGQGLEWMGMIDASDSETRLSQKFKDRVTITADKSTSTAYMELSSLRSEDTAVYYCARLGRYYFDYWGQGTTVTVSS
VL: EIVLTQSPATLSLSPGERATLSCRASENVGTYISWYQQKPGQAPRLLIYGASNRYTGIPARFSGSGSGTDFTLTISSLEPEDFAVYYCGESYGHLYTFGGGTKVEIK
notes: also called original humanized 108C10A6 antibody
B2 was tested, and the EC50 [2] was 5.5 nM, the “Fitted Maximal MFI” value [2] was 46600 MFI and the Kd [8] was 0.4 nM. For the same binder, the koff [8] was 0.00042 s⁻¹, the kon [8] was 1.1e+06 M⁻¹ s⁻¹ and the Kd [9] was 1.8 nM. The koff [9] was 0.00087 s⁻¹, the kon [9] was 480000 M⁻¹ s⁻¹ and the Kd [10] was 0.41 nM. It also gave a koff [10] of 0.00041 s⁻¹, a kon [10] of 1e+06 M⁻¹ s⁻¹ and a Kd [11] of 1.9 nM. For the same binder, the koff [11] was 0.00084 s⁻¹, the kon [11] was 430000 M⁻¹ s⁻¹ and the Kd [3] was 0.38 nM. For the same binder, the koff [3] was 0.00041 s⁻¹, the kon [3] was 1.1e+06 M⁻¹ s⁻¹ and the Kd [4] was 1.5 nM. For the same binder, the koff [4] was 0.00086 s⁻¹, the kon [4] was 570000 M⁻¹ s⁻¹ and the Kd [12] was 0.39 nM. It also gave a koff [12] of 0.00039 s⁻¹, a kon [12] of 1e+06 M⁻¹ s⁻¹ and a Kd [13] of 2.1 nM. It also gave a koff [13] of 0.00087 s⁻¹, a kon [13] of 410000 M⁻¹ s⁻¹ and a Kd [14] of 0.47 nM. For the same binder, the koff [14] was 0.00046 s⁻¹, the kon [14] was 980000 M⁻¹ s⁻¹ and the Kd [15] was 2.6 nM. It also gave a koff [15] of 0.00097 s⁻¹, a kon [15] of 380000 M⁻¹ s⁻¹ and a Kd [16] of 0.41 nM. For the same binder, the koff [16] was 0.00041 s⁻¹, the kon [16] was 1e+06 M⁻¹ s⁻¹ and the Kd [17] was 1.9 nM. It also gave a koff [17] of 0.00084 s⁻¹, a kon [17] of 430000 M⁻¹ s⁻¹ and a Kd [18] of 0.38 nM. For the same binder, the koff [18] was 0.00041 s⁻¹, the kon [18] was 1.1e+06 M⁻¹ s⁻¹ and the Kd [19] was 1.5 nM. The koff [19] was 0.00086 s⁻¹, the kon [19] was 570000 M⁻¹ s⁻¹ and the EC50 [5] was 2.6 nM. For the same binder, the EC50 [6] was 4.3 nM and the EC50 [7] was 7.6 nM.

B3: 108VH5.M16 / 108VL1.M5 (antibody, human IgG4 S228P, kappa, V domains shown)
VH: B1 VH with I56G
VL: B1 VL
notes: Full-length IgG4 (S228P), kappa; also called VH5.M16 VL1.M5
B3 was tested, and the “Fitted Maximal MFI” value [20] was 45300 MFI, the EC50 [2] was 6.9 nM and the “Fitted Maximal MFI” value [2] was 44700 MFI. For the same binder, the Kd [10] was 2.6 nM, the koff [10] was 0.0019 s⁻¹ and the kon [10] was 720000 M⁻¹ s⁻¹. It also gave a Kd [11] of 14 nM, a koff [11] of 0.0041 s⁻¹ and a kon [11] of 290000 M⁻¹ s⁻¹. It also gave an EC50 [5] of 1.9 nM, an EC50 [6] of 1.8 nM and an EC50 [21] of 3.9 nM.

B4: 108VH10 / 108VL10.M1 (antibody, V domains shown)
VH: EVQLVESGGGLVQPGGSLRLSCAASGYSFTHHWIHWVRQAPGKGLEWVAMIDPSDSETRLSQKFKDRFTISADTSKNTAYLQMNSLRAEDTAVYYCSRLGRYYFDYWGQGTLVTVSS
VL: DIQMTQSPSSLSASVGDRVTITCRASENVGTYISWYQQKPGKAPKLLIYGASNRYTGVPSRFSGSRSGTDFTLTISSLQPEDFATYYCGESYGHLYTFGQGTKVEIK
notes: 4D5-framework series; also called VH10 VL10.M1; straight-graft antibody
For B4, the “fold drop of mono-valent binding affinity (reference not given; Table 2, experiment 1)” value [22] was 34 fold, the Kd [12] was 5.6 nM and the koff [12] was 0.0013 s⁻¹. It also gave a kon [12] of 230000 M⁻¹ s⁻¹, a Kd [13] of 34 nM and a koff [13] of 0.0034 s⁻¹. For the same binder, the kon [13] was 99000 M⁻¹ s⁻¹, the Kd [14] was 5.8 nM and the koff [14] was 0.0016 s⁻¹. It also gave a kon [14] of 280000 M⁻¹ s⁻¹, a Kd [15] of 43 nM and a koff [15] of 0.0038 s⁻¹. The kon [15] was 87000 M⁻¹ s⁻¹, the Kd [16] was 6.1 nM and the koff [16] was 0.0014 s⁻¹. For the same binder, the kon [16] was 230000 M⁻¹ s⁻¹, the Kd [17] was 36 nM and the koff [17] was 0.003 s⁻¹. For the same binder, the kon [17] was 85000 M⁻¹ s⁻¹, the Kd [18] was 5.2 nM and the koff [18] was 0.0013 s⁻¹. For the same binder, the kon [18] was 240000 M⁻¹ s⁻¹, the Kd [19] was 28 nM and the koff [19] was 0.003 s⁻¹. It also gave a kon [19] of 110000 M⁻¹ s⁻¹.
